From paper doi:10.1101/715409 (bioRxiv, 2019)

T1: GST fusion to Boi1 (1-203) (Saccharomyces cerevisiae, UniProt P38041 1-203)
T1 sequence: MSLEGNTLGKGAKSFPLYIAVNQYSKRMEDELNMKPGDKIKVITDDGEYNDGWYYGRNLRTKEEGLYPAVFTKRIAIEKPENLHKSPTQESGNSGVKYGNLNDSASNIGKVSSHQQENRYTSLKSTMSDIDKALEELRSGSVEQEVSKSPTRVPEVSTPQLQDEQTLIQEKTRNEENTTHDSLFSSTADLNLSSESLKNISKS

B1: 6xHis Bud6_(1-141) (domain or fragment)
chain: MKMAVDDPTYGTPKIKRTASSSSSIETTVTKLLMSTKHLLQVLTQWSKGTTSGRLVSDAYVQLGNDFKVVSKFFMHAKVDMSDVGDVPMALRRVLEVTLREPPSDETLNKHLPKIREIIVTLLDKLKVKQAILKNMQQEHR
B2: GST fusion to Boi_(77-178) (domain or fragment)
chain: IEKPENLHKSPTQESGNSGVKYGNLNDSASNIGKVSSHQQENRYTSLKSTMSDIDKALEELRSGSVEQEVSKSPTRVPEVSTPQLQDEQTLIQEKTRNEENT

Experiments:
[1] = target: T1, GST fusion to Boi1 (1-203); assay: pull-down
[2] = target: B1; assay: pull-down

binding result [1]	binding result [2]	Binder
binds	–	B1
–	binds	B2
